Data as given in US20140323392A1 (UNIVERSITY OF UTAH RESEARCH FOUNDATION, published 2014).
Like-named read-outs stand apart in the source and are kept apart here. Bridges are numbered along the chain shown (N, C = ends). Roman numbers before positions name the chains, in order. Where no end group is shown, it is not given here. [ ]: non-standard residue; d: D form.

Key:
Assay in all cases: cell-based or functional assay
[1] = biological target: T1, HIV-1 JRFL envelope glycoprotein gp41 (N-trimer of the prehairpin intermediate) (HIV-1 strain JRFL)
[2] = biological target: T2, HIV-1 HXB2 envelope glycoprotein gp41 (N-trimer of the prehairpin intermediate) (HIV-1 strain HXB2, UniProt P04578 512-856)
[3] = biological target: T2, HIV-1 HXB2 envelope glycoprotein gp41 …; remark: listed apart in the source
[4] = biological target: T2, HIV-1 HXB2 envelope glycoprotein gp41 …; remark: listed apart in the source
[5] = biological target: T2, HIV-1 HXB2 envelope glycoprotein gp41 …; remark: listed apart in the source
[6] = biological target: T1, HIV-1 JRFL envelope glycoprotein gp41 …; remark: listed apart in the source
[7] = biological target: HIV-1 HXB2 envelope glycoprotein gp41 with resistance mutations E560K/V570I (HIV-1 strain HXB2, UniProt P04578 33-856)
[8] = biological target: HIV-1 HXB2 envelope glycoprotein gp41 with resistance mutation Q577R (HIV-1 strain HXB2, UniProt P04578 33-856)

Row | Binder | IC50, JRFL pseudovirion entry [1] [nM] | IC50, HXB2 pseudovirion entry [2] [nM] | IC50, HXB2 pseudovirion entry [4] [nM] | other results
1 | C0C(PIE7-GK)3 (disulfide I:3-I:12, II:3-II:12 (inferred); also: trimer, C-terminal Lys residues linked by zero length spacers) peptide 1: Ac-G[dA][dC][dD][dY][dP][dE][dW][dQ][dW][dL][dC][dA][dA]G[dK]-NH2 peptide 2: Ac-G[dA][dC][dD][dY][dP][dE][dW][dQ][dW][dL][dC][dA][dA]G[dK][dK]-NH2 | 16.1 | 0.12 | – | –
2 | Ac-[dH][dP][dC][dD][dY][dP][dE][dW][dQ][dW][dL][dC][dE][dL]GK-NH2 (disulfide 3-12 (inferred); not fully specified (residue 16)) [Chol-PEG24-PIE12 (monomer)] | – | – | 0.64 | IC50, HXB2 pseudovirion entry [3]: 0.4 nM
3 | [dC][dD][dY][dP][dE][dW][dQ][dW][dL][dC][dE][dL]GK (disulfide 1-10 (inferred); not fully specified (residue 14); also: homotrimer on trimethylolethane-triNHS ester scaffold) [PEG4-ΔHP-PIE12-trimer] | – | – | 300 | –
4 | Ac-[dK]G[dA][dC][dD][dY][dP][dE][dW][dQ][dW][dL][dC][dA][dA]-NH2 (disulfide 4-13 (inferred); also: dimer linked N- to C-terminal by zero-length spacer) [N0C(PIE7)2] | 400 | 0.53 | – | –
5 | Ac-[dK]G[dA][dC][dD][dY][dP][dE][dW][dQ][dW][dL][dC][dA][dA]-NH2 (disulfide 4-13 (inferred); also: dimer, N- to N-terminal Lys crosslinked by Bis-dPEG9 NHS ester) [N9N(PIE7)2] | 2300 | 1.9 | – | fold improvement of IC50 over the corresponding monomer [5]: ~325 fold
6 | Ac-[dH][dP][dC][dD][dY][dP][dE][dW][dQ][dW][dL][dC][dE][dL]GK-NH2 (disulfide 3-12 (inferred); not fully specified (residue 16)) [Chol-PEG2-PIE12 (monomer)] | – | – | 69 | IC50, HXB2 pseudovirion entry [3]: 58 nM
7 | [dC][dD][dY][dP][dE][dW][dQ][dW][dL][dC][dE][dL]GK (disulfide 1-10 (inferred); not fully specified (residue 14); also: homotrimer on trimethylolethane-triNHS ester scaffold) [PEG5-ΔHP-PIE12-trimer] | – | – | 380 | –
8 | Ac-[dH][dP][dC][dD][dY][dP][dE][dW][dQ][dW][dL][dC][dE][dL]GK-NH2 (disulfide 3-12 (inferred); not fully specified (residue 16)) [Chol-PEG12-PIE12 (monomer)] | – | – | 12 | IC50, JRFL pseudovirion entry [6]: 200 nM; IC50, HXB2 pseudovirion entry [3]: 11 nM
9 | Ac-G[dA][dC][dD][dY][dP][dE][dW][dQ][dW][dL][dC][dA][dA]G[dK]-NH2 (disulfide 3-12 (inferred); also: linked directly to trifunctional crosslinker TSAT) [PIE7-GK short claw] | 86.6 | 0.23 | – | –
10 | Ac-[dH][dP][dC][dD][dY][dP][dE][dW][dQ][dW][dL][dC][dE][dL]G[dK]-NH2 (disulfide 3-12 (inferred)) [PIE12] | 578 | – | – | IC50, JRFL pseudovirion entry [6]: 580 nM
11 | Ac-[dK]G[dA][dC][dD][dY][dP][dE][dW][dR][dW][dL][dC][dA][dA][dA]-NH2 (disulfide 4-13 (inferred); also: dimer, Lys crosslinked by PEG) [PEG-(PIE2-AAA)2] | – | – | – | IC50, pseudovirion entry [5]: 21 nM; fold improvement of IC50 over the corresponding monomer [5]: ~70 fold
12 | C5C(PIE7-GK)3 (disulfide I:3-I:12, II:3-II:12 (inferred); also: trimer: C-terminal Lys linked by PEG5 spacers) peptide 1: Ac-G[dA][dC][dD][dY][dP][dE][dW][dQ][dW][dL][dC][dA][dA]G[dK]-NH2 peptide 2: Ac-G[dA][dC][dD][dY][dP][dE][dW][dQ][dW][dL][dC][dA][dA]G[dK][dK]-NH2 | 6.7 | 0.13 | – | –
13 | Ac-G[dA][dC][dD][dY][dP][dE][dW][dQ][dW][dL][dC][dA][dA]G[dK]-NH2 (disulfide 3-12 (inferred); also: linked to trifunctional crosslinker LC-TSAT) [PIE7-GK long claw] | 20.6 | 0.12 | – | –
14 | [dC][dD][dY][dP][dE][dW][dQ][dW][dL][dC][dE][dL]G[dK] (disulfide 1-10 (inferred)) [ΔHP-PIE12] | – | – | 3100 | fold loss of potency against PIE12 [5]: 84 fold
15 | Ac-[dK]G[dA][dC][dD][dY][dP][dE][dW][dQ][dW][dL][dC][dA][dA]-NH2 (disulfide 4-13 (inferred); also: trimer linked by PEG9 spacers) [N9N(PIE7)3] | 220 | 0.25 | – | –
16 | Ac-[dH][dP][dC][dD][dY][dP][dE][dW][dQ][dW][dL][dC][dE][dL]GK-NH2 (disulfide 3-12 (inferred); not fully specified (residue 16); also: trimer on scaffold via PEG4, fourth arm PEG36 (PEG24 + PEG12 through D-Cys) carrying thiocholesterol) [Chol-PEG36-PIE12-trimer] | – | – | – | IC50, E560K/V570I HXB2 pseudovirion entry [7]: 0.0045 nM; IC50, Q577R HXB2 pseudovirion entry [8]: 2.7 nM; IC50, HXB2 pseudovirion entry [3]: 0.0054 nM
17 | C5C-PIE12-trimer (disulfide I:3-I:12, II:3-II:12 (inferred); also: trimer: C-terminal Lys linked by PEG5 spacers) peptide 1: Ac-[dH][dP][dC][dD][dY][dP][dE][dW][dQ][dW][dL][dC][dE][dL]G[dK]-NH2 peptide 2: Ac-[dH][dP][dC][dD][dY][dP][dE][dW][dQ][dW][dL][dC][dE][dL]G[dK][dK]-NH2 | 2.8 | – | – | IC50, E560K/V570I HXB2 pseudovirion entry [7]: 0.84 nM; IC50, JRFL pseudovirion entry [6]: 2.8 nM; IC50, Q577R HXB2 pseudovirion entry [8]: 2960 nM; IC50, HXB2 pseudovirion entry [3]: 0.33 nM
